Data on ten molecules can be found in US20150004189A1.

Changes are numbered by the printed parent chain.

Test [1] deals with HLA DQ molecule DQB1*0602 (human). The test can be described thus: inhibition of radiolabeled peptide binding to purified HLA class II.
The target in test [2] is HLA DQ molecule DQB1*0202 (human). The test is described as above.
The target in test [3] is T1, HLA DP molecule DPB1*0401 (human).
T1 chain 1: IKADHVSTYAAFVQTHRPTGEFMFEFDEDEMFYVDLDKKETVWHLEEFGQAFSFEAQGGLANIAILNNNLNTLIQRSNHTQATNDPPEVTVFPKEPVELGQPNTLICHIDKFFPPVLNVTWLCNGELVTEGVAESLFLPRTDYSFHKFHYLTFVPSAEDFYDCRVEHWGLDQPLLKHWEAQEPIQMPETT
T1 chain 2: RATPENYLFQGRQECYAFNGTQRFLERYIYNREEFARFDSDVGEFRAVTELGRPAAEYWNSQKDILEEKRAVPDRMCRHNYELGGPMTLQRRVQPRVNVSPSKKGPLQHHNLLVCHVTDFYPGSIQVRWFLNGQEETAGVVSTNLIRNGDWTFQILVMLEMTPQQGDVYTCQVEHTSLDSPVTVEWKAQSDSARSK
The test can be described thus: competition vs radiolabeled peptide, purified HLA-DP.

Test [4] concerns the target T2, HLA DP molecule DPB1*0201 (human).
T2 chain 1: T1 chain 1
T2 chain 2: T1 chain 2 with A36V, A55D, A56E, K69E
The description is as above.

Test [5] addresses HLA-DR molecules on the donors' cells (locus; alleles not stated). Description: cell-based or functional assay.
Test [6] addresses HLA DQ molecule DQB1*0503 (human). The test can be described thus: inhibition of radiolabeled peptide binding to purified HLA class II.
Test [7] addresses HLA DQ molecule DQB1*0502 (human). The description is as above.
The target of test [8] is T3, HLA DQ molecule DQB1*0402 (human), P01909.
T3 chain 1: not shown
T3 chain 2: not shown
Described as above.

The target of test [9] is T1, HLA DP molecule DPB1*0401 (human). Description: inhibition of radiolabeled peptide binding to purified HLA DP.
For test [10], the target named is T4, HLA-DQ molecule DQB1*0501 (human).
T4 chain 1: not shown
T4 chain 2: not shown
Description: competition: inhibition of radiolabeled peptide binding to purified HLA.

The next test deals with T5, HLA-DR DRB1*0301 (human).
T5 chain 1: not shown
T5 chain 2: not shown
The test can be described thus: inhibition of radiolabeled peptide binding to purified HLA class II. Conditions: remark: other sources report otherwise.

Take LDLAVNAAVDAGIHF (modifications not checked) [Pen ch 18 (291-305) peptide …, Peptide ID 3324.1331]: the results for the IC50 in test [1] and in [2] were 0.48 µM and 0.361 µM, respectively.

In the case of LDLAVNAAVDAGIHF (modifications not checked) [Pen ch 18 peptide, position 291, … (Peptide ID 3324.1331)], the IC50 in test [3] came out at 9.18 µM; in test [4] it was 5.05 µM.

In test [5], GSDEKNLALSIKYNKEGDSM (peptide, UniProt Q41183 11-30, looked up) [Dac g 2 (11-30) epitope region, Orchard Grass] had a Region restriction(s) DR (ELISPOT response inhibited by locus-specific mAb) of 1 donors.

Regarding GIFLSVAAGNEAENA (modifications not checked) [Pen ch 13 (271-285) peptide …, Peptide ID 3324.1303], the figures for the IC50 in test [6], in [7] and in test [8] were 50 µM, 50 µM and 0.102 µM, respectively.

For the molecule DGVWEIKSDKPLKGPFNFRF (peptide, UniProt P14947 51-70, looked up) [Lol p 2 (51-70) epitope region, Rye Grass], the Region restriction(s) DR (ELISPOT response inhibited by locus-specific mAb) in test [5] came to 3 donors.

In test [9], ITYVATATLPNYCRA (modifications not checked) [Alt a 1 peptide, position 116 (Peptide ID 3324.0014)] came in with an IC50 of 2.99 µM.

In test [9], KVSDDITYVATATLP (modifications not checked) [Alt a 1 peptide, position 111 (Peptide ID 3324.0013)] had an IC50 of 1.61 µM.

As to VADAYITLVTLPKSS (modifications not checked) [Alt a 1 peptide, position 143 (Peptide ID 3324.0016)], the concentration for half-maximal inhibition (IC50) in test [9] came to 2.5 µM.

As for AAAGLAAAAPLESRQ (modifications not checked) [Alt a 1 peptide, position 11, Peptide ID 3324.0017], in test [10], the concentration for half-maximal inhibition (IC50) came to 50 µM.

In turn, IASLFAAAGLAAAAP (modifications not checked) [Alt a 1 peptide, position 6, Peptide ID 3324.0015] yielded a half-inhibitory concentration (IC50) with HLA-DR DRB1*0301 (human) of 32.1 µM. That is a double-digit micromolar value.

As a reminder, the IC50 is the concentration that inhibits the measured activity by half. A low value points to inhibition by little substance.
